The data set concerns the molecule itself. In words: SEC.

Where no end group is shown, it is not given here. MBP = not defined here

The values below come from publication PMC9911985 (Journal of Molecular Biology, 2023).

Regarding {6xHis-MBP}-SCILLYVVFQKLSARLRALR (domain or fragment, reading uncertain) [6xHis-MBP-selenos 40–59], the binding result is listed as “binds”.
